Assay results taken from patent US20160340421A1 (Regeneron, published 2016).

Key:
[1] = biological target: T1, Human GDF8 homodimer (mature human Growth and Differentiation Factor-8) (human, UniProt O14793 267-375); assay: cell-based or functional assay
T1 sequence: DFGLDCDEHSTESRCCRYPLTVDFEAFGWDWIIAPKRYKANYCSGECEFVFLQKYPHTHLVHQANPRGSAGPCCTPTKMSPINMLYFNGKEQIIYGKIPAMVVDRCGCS

[2] = biological target: T1, Human GDF8 homodimer (mature human …); assay: SPR Biacore 3000, buffer without BSA
[3] = biological target: T2, GDF8/TGFβ[48-72] chimera (T48): GDF8.1-47.TGFβ1.49-76.GDF8.73-109 (human GDF8 with human TGFβ-1 sequence); assay: Western blot of CHO.hFurin supernatant
T2 construct: used as CHO conditioned medium / supernatant; also called GDF8/TGFβ-1 chimeric construct
T2 chain: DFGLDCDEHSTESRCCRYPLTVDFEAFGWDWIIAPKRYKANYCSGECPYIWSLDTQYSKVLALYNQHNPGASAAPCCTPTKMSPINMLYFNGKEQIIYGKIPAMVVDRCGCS
Description: (§1) The various chimeric GDF8 pro-proteins were transiently transfected in an engineered stable CHO.hFurin cell line. A similar Western Blot analysis as described above was used to detect the binding of various anti-hGDF8 antibodies to each of the chimeric GDF8. Briefly, […] of CHO supernatant were loaded onto each lane of an SDS-PAGE (non-reducing or reducing) gel and electroblotted onto a PVDF membrane. The membrane was then incubated with an anti-GDF8 antibody at 2 μg/ml followed by exposure to the appropriate secondary antibody conjugated to HRP.

[4] = biological target: T3, B48 chimera: GDF8.1-47.BMP2.48-77.GDF8.73-109; assay: Western blot of CHO.hFurin supernatant
T3 construct: CHO.hFurin supernatant
T3 chain: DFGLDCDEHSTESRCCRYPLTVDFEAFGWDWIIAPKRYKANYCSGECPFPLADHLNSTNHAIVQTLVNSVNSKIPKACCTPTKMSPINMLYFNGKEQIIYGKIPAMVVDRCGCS
Description: as §1

[5] = biological target: T1, Human GDF8 homodimer (mature human …); assay: SPR, antibody captured, buffer without BSA
Description: Equilibrium dissociation constants (KD values) for antigen binding to selected antibodies were determined by surface kinetics using a real-time biosensor surface plasmon resonance assay (BIACORE™ 2000). Each selected antibody was captured on either a goat anti-mouse IgG polyclonal antibody surface or a goat anti-hFc polyclonal antibody (Jackson Immuno Research Lab) surface created through direct chemical coupling to a BIACORE™ chip to form a captured antibody surface. Human GDF8 homodimer, hGDF11 homodimer, or hGDF5 homodimer at 25 nM was injected over the captured antibody surfaces, and antigen-antibody binding and dissociation were monitored in real time at room temperature. Kinetic analysis was performed to calculate KD, dissociation rate constants (kd), association rate constants (ka) and half-life of antigen/antibody complex dissociation (Table 2).

IC50, luciferase bioassay, 0.5 nM GDF8 [1]: 3.11 nM
IC50, luciferase bioassay, 1 nM GDF8 [1]: 5.55 nM
Kd [2]: 0.071 nM
T1/2 [2]: 2.32 h
binding result [3]: no binding (tested: 2 µg/ml)
binding result [4]: no binding (tested: 2 µg/ml)
Kd [5]: 0.016 nM
T1/2 [5]: 14 h
B1: 8D12 (antibody, V domains shown)
VH: QVQLVESGGGVVQPGRSLRLSCAASGFTFSRYGIHWVRQAPGKGLEWVAVISYDGSDEYYVDSVKGRFSISRDNSKNTLYLQMNSLRPADSAVYYCVKGDLELGFDYWGQGTLVTVSS
VL: DIVMTQAAPSIPVIPGESVSMSCRSSKSLLYSNGHTYVYWFVQRPGQSPQLLIYRMSNLASGVPDRFSGSGSGTAFTLRISRVEAEDVGVYYCMQNLEFPLTFGAGTKLELK
notes: also called antibody 8D12; 8D12 Antibody
